This is an account of results in PMC7494997 (Scientific Reports, 2020).

Broadly, the Kd is the equilibrium constant for the complex coming apart.

Assay [1] has as its target T1, yeast-displayed hVISTA (human).
T1 construct: also called wild-type hVISTA; WT VISTA
In words: flow cytometry on cells; hVISTA (Phe33-Ala194) displayed on yeast, titrations of soluble antibody in PBS/BSA pH 6.0, 4 °C, 12 h. Particulars: one partner purified. In general terms: In flow cytometry, cells or beads pass a laser one at a time.

For assay [2], the target named is T1, yeast-displayed hVISTA. The experiment in a line: flow cytometry on cells; hVISTA (Phe33-Ala194) displayed on yeast, titrations of soluble antibody in PBS/BSA pH 7.4, 4 °C, 12 h. Particulars: one partner purified.

T1 sequence (chain, as listed by the source): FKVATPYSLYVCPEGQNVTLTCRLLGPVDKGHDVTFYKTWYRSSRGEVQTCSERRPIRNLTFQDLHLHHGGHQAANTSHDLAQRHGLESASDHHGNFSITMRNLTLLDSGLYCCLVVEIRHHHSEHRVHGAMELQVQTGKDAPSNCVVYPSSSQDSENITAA

B1: BMS767 (antibody, V domains shown)
VH: EVQLVESGGGLVQPGKSLRLSCAASGFTLEDYAMHWVRQAPGKGLEWVSGIDWNSENIGYADSVKGRFTISRDNAKNSLYLQMNSLRTEDTALYYCAKVPGYSGGWIDAEDDWGQGTMVTVSS
VL: not shown
notes: human IgG1 heavy chain; human kappa light chain; full human IgG1; also called BMS (Bristol Myers Squibb); source: Expi293 cells, purified (protein A)
Consider B1, for which the Kd with yeast-displayed hVISTA [1] is around 3 nM.

B2: VSTB112 (antibody, V domains shown)
VH: QVQLVQSGAEVKKPGSSVKVSCKASGGTFSSYAISWVRQAPGQGLEWMGGIIPIFGTANYAQKFQGRVTITADESTSTAYMELSSLRSEDTAVYYCARSSYGWSYEFDYWGQGTLVTVSS
VL: DIQMTQSPSSLSASVGDRVTITCRASQSIDTRLNWYQQKPGKAPKLLIYSASSLQSGVPSRFSGSGSGTDFTLTISSLQPEDFATYYCQQSAYNPITFGQGTKVEIK
notes: human IgG1 heavy chain; human kappa light chain; full human IgG1; also called CI-8993 (Janssen/ImmuNext, Curis); source: Expi293 cells, purified (protein A)
In turn, B2 registered a Kd in the assay with yeast-displayed hVISTA [2] of around 3 nM.
